# Patent US20150315260A1 (Sanofi, published 2015)
# Starred links: 1 amine or outer side, 2 acyl side, 3 side chain; linkers in the order of their positions; H or OH if unused. Non-standard residues stand in square brackets, D forms with d. Groups on a side chain read outwards from the residue. No end group written: not given here. *: point of attachment. γGlu = O=C(O)[C@H](CCC(=O)[*:2])N[*:1]; Stearoyl = CCCCCCCCCCCCCCCCCC(=O)*; Palmitoyl = CCCCCCCCCCCCCCCC(=O)*; AEEA = NCCOCCOCC(=O)O; Aib = CC(C)(N)C(=O)O
# T1: human GIP receptor (human, UniProt P48546 22-466)
# T1 sequence (looked up): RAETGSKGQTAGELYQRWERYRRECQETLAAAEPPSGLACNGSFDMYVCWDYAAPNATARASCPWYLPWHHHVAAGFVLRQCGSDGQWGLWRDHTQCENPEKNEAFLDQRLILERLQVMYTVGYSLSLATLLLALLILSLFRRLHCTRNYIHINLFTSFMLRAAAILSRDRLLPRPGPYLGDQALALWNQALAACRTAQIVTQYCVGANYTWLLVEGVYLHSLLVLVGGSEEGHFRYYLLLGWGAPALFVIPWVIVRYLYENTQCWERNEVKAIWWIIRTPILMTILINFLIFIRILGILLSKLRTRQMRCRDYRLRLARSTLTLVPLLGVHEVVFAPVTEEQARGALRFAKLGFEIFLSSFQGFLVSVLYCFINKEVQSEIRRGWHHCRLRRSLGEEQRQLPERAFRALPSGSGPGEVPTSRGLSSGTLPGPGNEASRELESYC
# Assays:
# Assay in all cases: cell-based or functional assay
# [1] = molecular target: human glucagon receptor (human, UniProt P47871 26-477)
# human glucagon receptor, sequence (P47871 26-477): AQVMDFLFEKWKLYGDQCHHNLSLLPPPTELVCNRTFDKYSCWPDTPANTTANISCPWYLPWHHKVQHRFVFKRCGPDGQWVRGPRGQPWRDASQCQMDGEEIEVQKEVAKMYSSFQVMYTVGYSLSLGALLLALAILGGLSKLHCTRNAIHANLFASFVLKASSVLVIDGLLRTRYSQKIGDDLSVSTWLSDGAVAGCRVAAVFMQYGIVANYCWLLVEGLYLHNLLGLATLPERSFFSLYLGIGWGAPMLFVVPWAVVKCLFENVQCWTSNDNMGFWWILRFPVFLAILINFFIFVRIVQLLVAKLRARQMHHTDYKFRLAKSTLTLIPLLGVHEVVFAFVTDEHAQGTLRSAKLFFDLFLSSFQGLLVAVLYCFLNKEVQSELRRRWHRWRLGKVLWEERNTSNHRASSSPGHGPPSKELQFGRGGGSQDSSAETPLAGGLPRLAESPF
# [2] = molecular target: T1, human GIP receptor
# [3] = molecular target: human GLP-1 receptor (human, UniProt P43220 24-463)
Binder,EC50 hGlucagon-R (cAMP formation) [1] [pM],EC50 hGIP-R (cAMP formation) [2] [pM],EC50 hGLP-1R (cAMP formation) [3] [pM]
H[Aib]QGTFTSDLSKQK([AEEA-AEEA-γGlu-Stearoyl])DEQRAKLFIEWL[Aib]AGGPSSGAPPPS-NH2 (N-terminus assumed; SMILES CCCCCCCCCCCCCCCCCC(=O)N[C@@H](CCC(=O)NCCOCCOCC(=O)NCCOCCOCC(=O)NCCCC[C@H](NC(=O)[C@H](CCC(N)=O)NC(=O)[C@H](CCCCN)NC(=O)[C@H](CO)NC(=O)[C@H](CC(C)C)NC(=O)[C@H](CC(=O)O)NC(=O)[C@H](CO)NC(=O)[C@@H](NC(=O)[C@H](Cc1ccccc1)NC(=O)[C@@H](NC(=O)CNC(=O)[C@H](CCC(N)=O)NC(=O)C(C)(C)NC(=O)[C@@H](N)Cc1c[nH]cn1)[C@@H](C)O)[C@@H](C)O)C(=O)N[C@@H](CC(=O)O)C(=O)N[C@@H](CCC(=O)O)C(=O)N[C@@H](CCC(N)=O)C(=O)N[C@@H](CCCNC(=N)N)C(=O)N[C@@H](C)C(=O)N[C@@H](CCCCN)C(=O)N[C@@H](CC(C)C)C(=O)N[C@@H](Cc1ccccc1)C(=O)N[C@H](C(=O)N[C@@H](CCC(=O)O)C(=O)N[C@@H](Cc1c[nH]c2ccccc12)C(=O)N[C@@H](CC(C)C)C(=O)NC(C)(C)C(=O)N[C@@H](C)C(=O)NCC(=O)NCC(=O)N1CCC[C@H]1C(=O)N[C@@H](CO)C(=O)N[C@@H](CO)C(=O)NCC(=O)N[C@@H](C)C(=O)N1CCC[C@H]1C(=O)N1CCC[C@H]1C(=O)N1CCC[C@H]1C(=O)N[C@@H](CO)C(N)=O)[C@@H](C)CC)C(=O)O) [exendin-4 derivative SEQ ID NO: 17],16.2,906,2.8
H[Aib]QGTFTSDLSKQK([AEEA-AEEA-γGlu-Palmitoyl])DEQRAKLFIEWL[Aib]AGGPSSGAPPPS-NH2 (N-terminus assumed; SMILES CCCCCCCCCCCCCCCC(=O)N[C@@H](CCC(=O)NCCOCCOCC(=O)NCCOCCOCC(=O)NCCCC[C@H](NC(=O)[C@H](CCC(N)=O)NC(=O)[C@H](CCCCN)NC(=O)[C@H](CO)NC(=O)[C@H](CC(C)C)NC(=O)[C@H](CC(=O)O)NC(=O)[C@H](CO)NC(=O)[C@@H](NC(=O)[C@H](Cc1ccccc1)NC(=O)[C@@H](NC(=O)CNC(=O)[C@H](CCC(N)=O)NC(=O)C(C)(C)NC(=O)[C@@H](N)Cc1c[nH]cn1)[C@@H](C)O)[C@@H](C)O)C(=O)N[C@@H](CC(=O)O)C(=O)N[C@@H](CCC(=O)O)C(=O)N[C@@H](CCC(N)=O)C(=O)N[C@@H](CCCNC(=N)N)C(=O)N[C@@H](C)C(=O)N[C@@H](CCCCN)C(=O)N[C@@H](CC(C)C)C(=O)N[C@@H](Cc1ccccc1)C(=O)N[C@H](C(=O)N[C@@H](CCC(=O)O)C(=O)N[C@@H](Cc1c[nH]c2ccccc12)C(=O)N[C@@H](CC(C)C)C(=O)NC(C)(C)C(=O)N[C@@H](C)C(=O)NCC(=O)NCC(=O)N1CCC[C@H]1C(=O)N[C@@H](CO)C(=O)N[C@@H](CO)C(=O)NCC(=O)N[C@@H](C)C(=O)N1CCC[C@H]1C(=O)N1CCC[C@H]1C(=O)N1CCC[C@H]1C(=O)N[C@@H](CO)C(N)=O)[C@@H](C)CC)C(=O)O) [exendin-4 derivative SEQ ID NO: 16],42,1870,2
H[Aib]QGTFTSDLSKQK([γGlu-γGlu-Palmitoyl])DEQRAKLFIEWL[Aib]S[dA]GPSSGAPPPS-NH2 (N-terminus assumed; SMILES CCCCCCCCCCCCCCCC(=O)N[C@@H](CCC(=O)N[C@@H](CCC(=O)NCCCC[C@H](NC(=O)[C@H](CCC(N)=O)NC(=O)[C@H](CCCCN)NC(=O)[C@H](CO)NC(=O)[C@H](CC(C)C)NC(=O)[C@H](CC(=O)O)NC(=O)[C@H](CO)NC(=O)[C@@H](NC(=O)[C@H](Cc1ccccc1)NC(=O)[C@@H](NC(=O)CNC(=O)[C@H](CCC(N)=O)NC(=O)C(C)(C)NC(=O)[C@@H](N)Cc1c[nH]cn1)[C@@H](C)O)[C@@H](C)O)C(=O)N[C@@H](CC(=O)O)C(=O)N[C@@H](CCC(=O)O)C(=O)N[C@@H](CCC(N)=O)C(=O)N[C@@H](CCCNC(=N)N)C(=O)N[C@@H](C)C(=O)N[C@@H](CCCCN)C(=O)N[C@@H](CC(C)C)C(=O)N[C@@H](Cc1ccccc1)C(=O)N[C@H](C(=O)N[C@@H](CCC(=O)O)C(=O)N[C@@H](Cc1c[nH]c2ccccc12)C(=O)N[C@@H](CC(C)C)C(=O)NC(C)(C)C(=O)N[C@@H](CO)C(=O)N[C@H](C)C(=O)NCC(=O)N1CCC[C@H]1C(=O)N[C@@H](CO)C(=O)N[C@@H](CO)C(=O)NCC(=O)N[C@@H](C)C(=O)N1CCC[C@H]1C(=O)N1CCC[C@H]1C(=O)N1CCC[C@H]1C(=O)N[C@@H](CO)C(N)=O)[C@@H](C)CC)C(=O)O)C(=O)O) [exendin-4 derivative SEQ ID NO: 12],130,8290,3.7
H[Aib]QGTFTSDLSKQK([γGlu-γGlu-Palmitoyl])DEQRAKLFIEWL[Aib]K[dA]GPSSGAPPPS-NH2 (N-terminus assumed; SMILES CCCCCCCCCCCCCCCC(=O)N[C@@H](CCC(=O)N[C@@H](CCC(=O)NCCCC[C@H](NC(=O)[C@H](CCC(N)=O)NC(=O)[C@H](CCCCN)NC(=O)[C@H](CO)NC(=O)[C@H](CC(C)C)NC(=O)[C@H](CC(=O)O)NC(=O)[C@H](CO)NC(=O)[C@@H](NC(=O)[C@H](Cc1ccccc1)NC(=O)[C@@H](NC(=O)CNC(=O)[C@H](CCC(N)=O)NC(=O)C(C)(C)NC(=O)[C@@H](N)Cc1c[nH]cn1)[C@@H](C)O)[C@@H](C)O)C(=O)N[C@@H](CC(=O)O)C(=O)N[C@@H](CCC(=O)O)C(=O)N[C@@H](CCC(N)=O)C(=O)N[C@@H](CCCNC(=N)N)C(=O)N[C@@H](C)C(=O)N[C@@H](CCCCN)C(=O)N[C@@H](CC(C)C)C(=O)N[C@@H](Cc1ccccc1)C(=O)N[C@H](C(=O)N[C@@H](CCC(=O)O)C(=O)N[C@@H](Cc1c[nH]c2ccccc12)C(=O)N[C@@H](CC(C)C)C(=O)NC(C)(C)C(=O)N[C@@H](CCCCN)C(=O)N[C@H](C)C(=O)NCC(=O)N1CCC[C@H]1C(=O)N[C@@H](CO)C(=O)N[C@@H](CO)C(=O)NCC(=O)N[C@@H](C)C(=O)N1CCC[C@H]1C(=O)N1CCC[C@H]1C(=O)N1CCC[C@H]1C(=O)N[C@@H](CO)C(N)=O)[C@@H](C)CC)C(=O)O)C(=O)O) [exendin-4 derivative SEQ ID NO: 14],194,6530,4.1
